Laboratory results reported in paper PMC7954794, “Protein context shapes the specificity of SH3 domain-mediated interactions in vivo” (Nature Communications, 2021).

Assays:
Format in all cases: cell-based, Saccharomyces cerevisiae
BBC1 = assay: DHFR-PCA on solid medium, bait BBC1 (Fig. 1B); settings: bait BBC1, label = prey; 2-4 replicates
Description: (§1) Supplement 41467_2021_21873_MOESM8_ESM.xlsx, sheet "Fig1B" | column: medsize; medrep; Ratio; Score

[1] = test system: 575 putative partners (preys) of 22 WT SH3-containing proteins; assay: DHFR-PCA on solid medium, WT and SH3-deleted baits (Fig. 1B); set-up: key to Score: 0: SH3-independent; 1: SH3-dependent PPIs; 2: SH3-inhibited PPIs
In short: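 In S. cerevisiae, 22 SH3-containing baits fused genomically to DHFR F[1,2], either WT or with each SH3 replaced via CRISPR by a poly-Gly/Ser linker, screened against 575 DHFR F[3] preys plus 40 negative controls in 1536 arrays, preys duplicated at randomized positions.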

BOI1 = assay: DHFR-PCA on solid medium, bait BOI1 (Fig. 1B); settings: bait BOI1, label = prey; 3-8 replicates
Description: as §1

BUD14 = assay: DHFR-PCA on solid medium, bait BUD14 (Fig. 1B); settings: bait BUD14, label = prey; 4 replicates
Description: as §1

BEM1-1 = assay: DHFR-PCA on solid medium, bait BEM1-1 (Fig. 1B); settings: bait BEM1-1, label = prey; 2-8 replicates
Description: as §1

BEM1-2 = assay: DHFR-PCA on solid medium, bait BEM1-2 (Fig. 1B); settings: bait BEM1-2, label = prey; 2-8 replicates
Description: as §1

ABP1 = assay: DHFR-PCA on solid medium, bait ABP1 (Fig. 1B); settings: bait ABP1, label = prey; 2-4 replicates
Description: as §1

BZZ1-1 = assay: DHFR-PCA on solid medium, bait BZZ1-1 (Fig. 1B); settings: bait BZZ1-1, label = prey; 4 replicates
Description: Supplement 41467_2021_21873_MOESM8_ESM.xlsx, sheet "Fig1B" | column: medsize; medrep; Score

BOI2 = assay: DHFR-PCA on solid medium, bait BOI2 (Fig. 1B); settings: bait BOI2, label = prey; 3-8 replicates
Description: as §1

Hua2 = assay: Deep mutational scanning of Abp1 SH3, Abp1-Hua2 DHFR-PCA (DMS score); settings: for HUA2_MTX2 (frequency normalized to the reference condition): Abp1 SH3 amino acid mutation; for HUA2_MTX2 (frequency normalized to the reference condition) / HUA2_MTX2 (frequencies normalized to the reference condition): MTX2; for HUA2_MTX2 (frequencies normalized to the reference condition): Abp1-Hua2 DHFR-PCA
In short: (§2)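 Saturation mutagenesis (NNN per codon) of Abp1 SH3, reintegrated at the genomic locus in yeast and mated with Hua2- or Lsb3-DHFR F[3] prey strains. Diploids underwent two rounds of liquid DHFR-PCA selection (72 h each, 30 °C), in biological duplicate. Mutant abundance was tracked by Illumina sequencing against the pre-selection reference.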

Lsb3 = assay: Deep mutational scanning of Abp1 SH3, Abp1-Lsb3 DHFR-PCA (DMS score); settings: for LSB3_MTX2 (frequency normalized to the reference condition): Abp1 SH3 amino acid mutation; for LSB3_MTX2 (frequency normalized to the reference condition) / LSB3_MTX2 (frequencies normalized to the reference condition): MTX2; for LSB3_MTX2 (frequencies normalized to the reference condition): Abp1-Lsb3 DHFR-PCA
In short: as §2

Hua2 and Lsb3 [2] = assay: Deep mutational scanning quadrant of Abp1 SH3 (Hua2 and Lsb3 DMS scores); settings: class of mutation by HUA2 and LSB3 DMS scores
Hua2 and Lsb3 [3] = assay: Deep mutational scanning of Abp1 SH3: combined class (quadrant) from Abp1-Hua2 and Abp1-Lsb3 DHFR-PCA; settings: class by DMS scores with Hua2 and Lsb3 (Neutral, Dest. both, Dest. Hua2, Dest. Lsb3)
[4] = frequencies scaled to the synonymous mutation distribution, HUA2 prey
[5] = frequencies scaled to the synonymous mutation distribution, LSB3 prey
[6] = Hua2, frequencies scaled to the synonymous mutation distribution (DMS score)
[7] = Lsb3, frequencies scaled to the synonymous mutation distribution (DMS score)

B1: YIL033C (protein, UniProt P07278 2-416, looked up)
cAMP-dependent protein kinase …: VSSLPKESQAELQLFQNEINAANPSDFLQFSANYFNKRLEQQRAFLKAREPEFKAKNIVLFPEPEESFSRPQSAQSQSRSRSSVMFKSPFVNEDPHSNVFKSGFNLDPHEQDTHQQAQEEQQHTREKTSTPPLPMHFNAQRRTSVSGETLQPNNFDDWTPDHYKEKSEQQLQRLEKSIRNNFLFNKLDSDSKRLVINCLEEKSVPKGATIIKQGDQGDYFYVVEKGTVDFYVNDNKVNSSGPGSSFGELALMYNSPRAATVVATSDCLLWALDRLTFRKILLGSSFKKRLMYDDLLKSMPVLKSLTTYDRAKLADALDTKIYQPGETIIREGDQGENFYLIEYGAVDVSKKGQGVINKLKDHDYFGEVALLNDLPRQATVTATKRTKVATLGKSGFQRLLGPAVDVLKLNDPTRH
medrep (log2 median colony size normalized to plate background, PCA score) (BBC1): 2.137 | medrep (log2 median colony size normalized to plate background, PCA score) ([1]; bait SLA1-3, DHFR-PCA, label = prey, Replicates 4 (2 for YCR009C, YDR388W, YIL033C)): 2.8 | Score ([1]; bait SLA1-3, label = prey): 0 | medrep (log2 median colony size normalized to plate background, PCA score) (BOI1): 2.0471 | medrep (log2 median colony size normalized to plate background, PCA score) (BUD14): 1.967 | medrep (log2 median colony size normalized to plate background, PCA score) (BEM1-1): 1.8558 | medrep (log2 median colony size normalized to plate background, PCA score) (BEM1-2): 1.8558 | medrep (log2 median colony size normalized to plate background, PCA score) (ABP1): 3.25 | medrep (log2 median colony size normalized to plate background, PCA score) (BZZ1-1): 2.099 | medrep (log2 median colony size normalized to plate background, PCA score) (BOI2): 1.723

B2: ABP1 A3A (protein, UniProt P15891 2-592, looked up)
Actin-binding protein: ALEPIDYTTHSREIDAEYLKIVRGSDPDTTWLIISPNAKKEYEPESTGSSFHDFLQLFDETKVQYGLARVSPPGSDVEKIIIIGWCPDSAPLKTRASFAANFAAVANNLFKGYHVQVTARDEDDLDENELLMKISNAAGARYSIQTSSKQQGKASTPPVKKSFTPSKSPAPVSKKEPVKTPSPAPAAKISSRVNDNNDDDDWNEPELKERDFDQAPLKPNQSSYKPIGKIDLQKVIAEEKAKEDPRLVQKPTAAGSKIDPSSDIANLKNESKLKRDSEFNSFLGTTKPPSMTESSLKNDDDKVIKGFRNEKSPAQLWAERKAKQNSGNAETKAEAPKPEVPEDEPEGEPDVKDLKSKFEGLAASEKEEEEMENKFAPPPKKSEPTIISPKPFSKPQEPVKAEEAEQPKTDYKKIGNPLPGMHIEADNEEEPEENDDDWDDDEDEAAQPPLPSRNVASGAPVQKEEPEQEEIAPSLPSRNSIPAPKQEEAPEQAPEEEIEEEAEEAAPQLPSRSSAAPPPPPRRATPEKKPKENPWATAEYDYDAAEDNELTFVENDKIINIEFVDDDWWLGELEKDGSKGLFPSNYVSLGN
modifications: synonymous A3A codon
HUA2_MTX2 (frequency normalized to the reference condition) (Hua2; HUA2 prey): 1.172 | hua2sc (DMS score) (Hua2; [4]): -0.4405 | LSB3_MTX2 (frequency normalized to the reference condition) (Lsb3; LSB3 prey): 1.292 | lsb3sc (DMS score) (Lsb3; [5]): -0.2087 | quadrant (Hua2 and Lsb3 [2]): Neutral

B3: ABP1 T4T (protein, UniProt P15891 2-592, looked up)
Actin-binding protein: ALEPIDYTTHSREIDAEYLKIVRGSDPDTTWLIISPNAKKEYEPESTGSSFHDFLQLFDETKVQYGLARVSPPGSDVEKIIIIGWCPDSAPLKTRASFAANFAAVANNLFKGYHVQVTARDEDDLDENELLMKISNAAGARYSIQTSSKQQGKASTPPVKKSFTPSKSPAPVSKKEPVKTPSPAPAAKISSRVNDNNDDDDWNEPELKERDFDQAPLKPNQSSYKPIGKIDLQKVIAEEKAKEDPRLVQKPTAAGSKIDPSSDIANLKNESKLKRDSEFNSFLGTTKPPSMTESSLKNDDDKVIKGFRNEKSPAQLWAERKAKQNSGNAETKAEAPKPEVPEDEPEGEPDVKDLKSKFEGLAASEKEEEEMENKFAPPPKKSEPTIISPKPFSKPQEPVKAEEAEQPKTDYKKIGNPLPGMHIEADNEEEPEENDDDWDDDEDEAAQPPLPSRNVASGAPVQKEEPEQEEIAPSLPSRNSIPAPKQEEAPEQAPEEEIEEEAEEAAPQLPSRSSAAPPPPPRRATPEKKPKENPWATAEYDYDAAEDNELTFVENDKIINIEFVDDDWWLGELEKDGSKGLFPSNYVSLGN
modifications: synonymous T4T codon change
HUA2_MTX2 (frequency normalized to the reference condition) (Hua2; HUA2 prey): 1.763 | hua2sc (DMS score) (Hua2; [4]): 0.1499 | LSB3_MTX2 (frequency normalized to the reference condition) (Lsb3; LSB3 prey): 1.639 | lsb3sc (DMS score) (Lsb3; [5]): 0.1386 | quadrant (Hua2 and Lsb3 [2]): Neutral

B4: ABP1 E29E (protein, UniProt P15891 2-592, looked up)
Actin-binding protein: ALEPIDYTTHSREIDAEYLKIVRGSDPDTTWLIISPNAKKEYEPESTGSSFHDFLQLFDETKVQYGLARVSPPGSDVEKIIIIGWCPDSAPLKTRASFAANFAAVANNLFKGYHVQVTARDEDDLDENELLMKISNAAGARYSIQTSSKQQGKASTPPVKKSFTPSKSPAPVSKKEPVKTPSPAPAAKISSRVNDNNDDDDWNEPELKERDFDQAPLKPNQSSYKPIGKIDLQKVIAEEKAKEDPRLVQKPTAAGSKIDPSSDIANLKNESKLKRDSEFNSFLGTTKPPSMTESSLKNDDDKVIKGFRNEKSPAQLWAERKAKQNSGNAETKAEAPKPEVPEDEPEGEPDVKDLKSKFEGLAASEKEEEEMENKFAPPPKKSEPTIISPKPFSKPQEPVKAEEAEQPKTDYKKIGNPLPGMHIEADNEEEPEENDDDWDDDEDEAAQPPLPSRNVASGAPVQKEEPEQEEIAPSLPSRNSIPAPKQEEAPEQAPEEEIEEEAEEAAPQLPSRSSAAPPPPPRRATPEKKPKENPWATAEYDYDAAEDNELTFVENDKIINIEFVDDDWWLGELEKDGSKGLFPSNYVSLGN
modifications: synonymous codon change E29E
quadrant (Hua2 and Lsb3 [3]): Neutral | HUA2_MTX2 (frequencies normalized to the reference condition) (Hua2): 1.834 | hua2sc (DMS score) (Hua2; [6]): 0.2208 | LSB3_MTX2 (frequencies normalized to the reference condition) (Lsb3): 1.788 | lsb3sc (DMS score) (Lsb3; [7]): 0.2879

B5: ABP1 N27N (protein, UniProt P15891 2-592, looked up)
Actin-binding protein: ALEPIDYTTHSREIDAEYLKIVRGSDPDTTWLIISPNAKKEYEPESTGSSFHDFLQLFDETKVQYGLARVSPPGSDVEKIIIIGWCPDSAPLKTRASFAANFAAVANNLFKGYHVQVTARDEDDLDENELLMKISNAAGARYSIQTSSKQQGKASTPPVKKSFTPSKSPAPVSKKEPVKTPSPAPAAKISSRVNDNNDDDDWNEPELKERDFDQAPLKPNQSSYKPIGKIDLQKVIAEEKAKEDPRLVQKPTAAGSKIDPSSDIANLKNESKLKRDSEFNSFLGTTKPPSMTESSLKNDDDKVIKGFRNEKSPAQLWAERKAKQNSGNAETKAEAPKPEVPEDEPEGEPDVKDLKSKFEGLAASEKEEEEMENKFAPPPKKSEPTIISPKPFSKPQEPVKAEEAEQPKTDYKKIGNPLPGMHIEADNEEEPEENDDDWDDDEDEAAQPPLPSRNVASGAPVQKEEPEQEEIAPSLPSRNSIPAPKQEEAPEQAPEEEIEEEAEEAAPQLPSRSSAAPPPPPRRATPEKKPKENPWATAEYDYDAAEDNELTFVENDKIINIEFVDDDWWLGELEKDGSKGLFPSNYVSLGN
modifications: synonymous change N27N in SH3 domain
quadrant (Hua2 and Lsb3 [3]): Neutral | HUA2_MTX2 (frequencies normalized to the reference condition) (Hua2): 1.61 | hua2sc (DMS score) (Hua2; [6]): -0.002773 | LSB3_MTX2 (frequencies normalized to the reference condition) (Lsb3): 1.694 | lsb3sc (DMS score) (Lsb3; [7]): 0.1932

B6: ABP1 I25I (protein, UniProt P15891 2-592, looked up)
Actin-binding protein: ALEPIDYTTHSREIDAEYLKIVRGSDPDTTWLIISPNAKKEYEPESTGSSFHDFLQLFDETKVQYGLARVSPPGSDVEKIIIIGWCPDSAPLKTRASFAANFAAVANNLFKGYHVQVTARDEDDLDENELLMKISNAAGARYSIQTSSKQQGKASTPPVKKSFTPSKSPAPVSKKEPVKTPSPAPAAKISSRVNDNNDDDDWNEPELKERDFDQAPLKPNQSSYKPIGKIDLQKVIAEEKAKEDPRLVQKPTAAGSKIDPSSDIANLKNESKLKRDSEFNSFLGTTKPPSMTESSLKNDDDKVIKGFRNEKSPAQLWAERKAKQNSGNAETKAEAPKPEVPEDEPEGEPDVKDLKSKFEGLAASEKEEEEMENKFAPPPKKSEPTIISPKPFSKPQEPVKAEEAEQPKTDYKKIGNPLPGMHIEADNEEEPEENDDDWDDDEDEAAQPPLPSRNVASGAPVQKEEPEQEEIAPSLPSRNSIPAPKQEEAPEQAPEEEIEEEAEEAAPQLPSRSSAAPPPPPRRATPEKKPKENPWATAEYDYDAAEDNELTFVENDKIINIEFVDDDWWLGELEKDGSKGLFPSNYVSLGN
modifications: synonymous codon change I25
quadrant (Hua2 and Lsb3 [3]): Neutral | HUA2_MTX2 (frequencies normalized to the reference condition) (Hua2): 1.723 | hua2sc (DMS score) (Hua2; [6]): 0.1101 | LSB3_MTX2 (frequencies normalized to the reference condition) (Lsb3): 1.319 | lsb3sc (DMS score) (Lsb3; [7]): -0.181
